Reference: PMC6624210 (Nature Communications, 2019)

B1: mouse monoclonal antibody 7D10 (antibody, V domains shown)
VH: EVQLVESGAEVVKPGASVKMSCKASGYPFTSYNIHWIKQTPGQGLEWIGAIYPGNGDTSYTQKFKVKATLTSDKSSSTAYMQLSSLTSEDSAVYFCARYGNYPSYAMDYWGQGTSVTVSS
VL: DIVMTQSPASLTVSLGQRATISCRASKSVSASGYNYLHWYQQRPGQPPKLLIYLAFNLESGVPARFNGSGSGTDFTLNIHPVEEEDAATYYCQHSRDLPFTFGSGTKLEIK
B2: 7D10 scFv (VL, triple GGGS linker, VH) (scFv, V domains shown)
VH: B1 VH
VL: B1 VL

Assays:
[1] = target: MERS-CoV spike glycoprotein S1 N-terminal domain (residues 18-353), wild type (MERS-CoV, EMC strain (NTD sequence …, UniProt K9N5Q8)); test: cell-based or functional assay
MERS-CoV spike glycoprotein S1 N-terminal domain (residues 18-353), wild type (MERS-CoV, EMC strain, sequence (K9N5Q8 18-353): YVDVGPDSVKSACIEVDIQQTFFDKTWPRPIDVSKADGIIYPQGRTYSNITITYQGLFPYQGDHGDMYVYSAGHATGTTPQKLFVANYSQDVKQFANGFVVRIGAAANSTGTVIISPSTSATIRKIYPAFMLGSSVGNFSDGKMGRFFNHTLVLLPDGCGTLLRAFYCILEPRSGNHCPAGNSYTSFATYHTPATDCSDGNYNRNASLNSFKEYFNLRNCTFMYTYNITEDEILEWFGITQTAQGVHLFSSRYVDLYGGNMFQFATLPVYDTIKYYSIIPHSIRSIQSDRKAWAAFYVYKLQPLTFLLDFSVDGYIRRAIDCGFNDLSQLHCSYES

[2] = target: recombinant receptor-binding domain of MERS-CoV S glycoprotein (residues 367-606) (MERS-CoV, EMC/2012 (strain used …, UniProt K0BRG7)); test: ELISA; conditions: both partners purified

Binder	IC50 of neutralisation of pseudotyped MERS-CoV on Huh7 cells (luciferase) [1]	binding result [2]	IC50 of inhibition of cell entry of pseudotyped MERS-CoV (Huh7 cells) [1]
B1	~0.18 µg/mL	no binding (tested: 4 μg mL^−1)	–
B2	–	–	0.28 µg/mL
